Experimental data from publication PMC4631590.

How the values were obtained:
[1] = biological target: Corynebacterium ammoniagenes fatty-acid synthase type I (C. ammoniagenes); test: SEC; 0.1 M sodium phosphate pH 6.5, 0.1 M NaCl, 5 mM sodium malonate
[2] = biological target: Corynebacterium efficiens fatty-acid synthase type I (FAS B) (C. efficiens) (UniProt Q8FMV7); test: SEC; Superose 6 XK 16/70; 0.1 M bis-tris propane pH 6.8, 0.2 M NaCl, 10% glycerol

Substance | stoichiometry N [1] | stoichiometry N [2]
Corynebacterium ammoniagenes fatty-acid synthase type I (enzyme) | 6 | 
Corynebacterium efficiens fatty-acid synthase type I (FAS B) (from UniProt Q8FMV7 1-3022) (enzyme) |  | 6
